# Assay results: paper PMC6650474, “Plasmodium myosin A drives parasite invasion by an atypical force generating mechanism” (Nature Communications, 2019)
# Where a chain is given by its changes, count along the chain named. Names may count otherwise.
# B1: Full-length PfMyoA (Plasmodium falciparum myosin A) heavy chain, wild type, co-expressed with the light chains PfMTIP and PfELC (complex)
# chain 1: MAVTNEEIKTASKIVRRVSNVEAFDKSGSVFKGYQIWTDISPTIENDPNIMFVKCVVQQGSKKEKLTVVQIDPPGTGTPYDIDPTHAWNCNSQVDPMSFGDIGLLNHTNIPCVLDFLKHRYLKNQIYTTAVPLIVAINPYKDLGNTTNEWIRRYRDTADHTKLPPHVFTCAREALSNLHGVNKSQTIIVSGESGAGKTEATKQIMRYFASSKSGNMDLRIQTAIMAANPVLEAFGNAKTIRNNNSSRFGRFMQLVISHEGGIRYGSVVAFLLEKSRIITQDDNERSYHIFYQFLKGANSTMKSKFGLKGVTEYKLLNPNSTEVSGVDDVKDFEEVIESLKNMELSESDIEVIFSIVAGILTLGNVRLIEKQEAGLSDAAAIMDEDMGVFNKACELMYLDPELIKREILIKVTVAGGTKIEGRWNKNDAEVLKSSLCKAMYEKLFLWIIRHLNSRIEPEGGFKTFMGMLDIFGFEVFKNNSLEQLFINITNEMLQKNFVDIVFERESKLYKDEGISTAELKYTSNKEVINVLCEKGKSVLSYLEDQCLAPGGTDEKFVSSCATNLKENNKFTPAKVASNKNFIIQHTIGPIQYCAESFLLKNKDVLRGDLVEVIKDSPNPIVQQLFEGQVIEKGKIAKGSLIGSQFLNQLTSLMNLINSTEPHFIRCIKPNENKKPLEWCEPKILIQLHALSILEALVLRQLGYSYRRTFEEFLYQYKFVDIAAAEDSSVENQNKCVNILKLSGLSESMYKIGKSMVFLKQEGAKILTKIQREKLVEWENCVSVIEAAILKHKYKQKVNKNIPSLLRVQAHIRKKMVAQ
# chain 2: MKQECNVCYFNLPDPESTLGPYDNELNYFTWGPGFEYEPEPQRKPLSIEESFENSEESEESVADIQQLEEKVDESDVRIYFNEKSSGGKISIDNASYNARKLGLAPSSIDEKKIKELYGDNLTYEQYLEYLSICVHDKDNVEELIKMFAHFDNNCTGYLTKSQMKNILTTWGDALTDQEAIDALNAFSSEDNIDYKLFCEDILQ
# chain 3: MASDMEEKFREAFILFSSCSDHIEMYKFFELMNSFGIILTNDEKAALPNDINMDYWLNFAKKHYNYEQPFKHINNVNEQNTNVQIKIDNFLGIMKALDTRLTESDLNILLQITNPENKSTLNLKTVSQKLTESI
# modifications: phosphoserine at 19 (96 ± 1% of the peptides); biotin on the biotin carboxyl carrier protein segment
# B2: ΔN version of full-length PfMyoA heavy chain (residues Ala2 through Ser19 removed), co-expressed wit (complex)
# chain 1: MNVEAFDKSGSVFKGYQIWTDISPTIENDPNIMFVKCVVQQGSKKEKLTVVQIDPPGTGTPYDIDPTHAWNCNSQVDPMSFGDIGLLNHTNIPCVLDFLKHRYLKNQIYTTAVPLIVAINPYKDLGNTTNEWIRRYRDTADHTKLPPHVFTCAREALSNLHGVNKSQTIIVSGESGAGKTEATKQIMRYFASSKSGNMDLRIQTAIMAANPVLEAFGNAKTIRNNNSSRFGRFMQLVISHEGGIRYGSVVAFLLEKSRIITQDDNERSYHIFYQFLKGANSTMKSKFGLKGVTEYKLLNPNSTEVSGVDDVKDFEEVIESLKNMELSESDIEVIFSIVAGILTLGNVRLIEKQEAGLSDAAAIMDEDMGVFNKACELMYLDPELIKREILIKVTVAGGTKIEGRWNKNDAEVLKSSLCKAMYEKLFLWIIRHLNSRIEPEGGFKTFMGMLDIFGFEVFKNNSLEQLFINITNEMLQKNFVDIVFERESKLYKDEGISTAELKYTSNKEVINVLCEKGKSVLSYLEDQCLAPGGTDEKFVSSCATNLKENNKFTPAKVASNKNFIIQHTIGPIQYCAESFLLKNKDVLRGDLVEVIKDSPNPIVQQLFEGQVIEKGKIAKGSLIGSQFLNQLTSLMNLINSTEPHFIRCIKPNENKKPLEWCEPKILIQLHALSILEALVLRQLGYSYRRTFEEFLYQYKFVDIAAAEDSSVENQNKCVNILKLSGLSESMYKIGKSMVFLKQEGAKILTKIQREKLVEWENCVSVIEAAILKHKYKQKVNKNIPSLLRVQAHIRKKMVAQ
# chain 2: B1 chain 2
# chain 3: B1 chain 3
# modifications: biotin on the biotin carboxyl carrier protein segment
# B3: Full-length PfMyoA heavy chain S19A (phospho-null), co-expressed with the light chains PfMTIP and PfELC (complex)
# chain 1: B1 chain 1 with S19A
# chain 2: B1 chain 2
# chain 3: B1 chain 3
# modifications: biotin on the biotin carboxyl carrier protein segment
# B4: Full-length PfMyoA heavy chain K764E (charge reversal in the converter), co-expressed with the light chains PfMTIP and PfELC (complex)
# chain 1: B1 chain 1 with K764E
# chain 2: B1 chain 2
# chain 3: B1 chain 3
# modifications: biotin on the biotin carboxyl carrier protein segment
# Molecular target: Skeletal muscle actin (chicken, UniProt P68139 1-377)
# Test: cell-based or functional assay
row,Binder,"Km for skeletal actin of the actin-activated ATPase activity (Michaelis-Menten fit, 30 °C, 5 mM KCl) [µM]"
1,B1,30.3
2,B2,7.34
3,B3,8.5
4,B4,18.2
